From article PMC3027617 (2011)

Target: 2F5 epitope scaffold ES1
Assay: SPR

B1: 2F5 monoclonal antibody (antibody, V domains shown)
VH: RITLKESGPPLVKPTQTLTLTCSFSGFSLSDFGVGVGWIRQPPGKALEWLAIIYSDDDKRYSPSLNTRLTITKDTSKNQVVLVMTRVSPVDTATYFCAHRRGPTTLFGVPIARGPVNAMDVWGQGITVTISS
VL: ALQLTQSPSSLSASVGDRITITCRASQGVTSALAWYRQKPGSPPQLLIYDASSLESGVPSRFSGSGSGTEFTLTISTLRPEDFATYYCQQLHFYPHTFGGGTRVDVR
koff: 0.00109 s⁻¹
